# Source: publication PMC3807708
# What was measured:
# Assay in all cases: SPR; ProteOn XPR36; His-tagged receptor immobilised on Ni2+-activated HTG chip; IFN-γ-SC as analyte, 1.2 to 99 nM; PBST (PBS pH 7.4, 0.005% Tween20); 25°C; 1:1 Langmuir with drift model; doubly referenced
# IFN-γ-Rx H222D (human) = IFN-γ-Rx H222D (human) (UniProt P15260)
# IFN-γ-Rx H222R (human) = IFN-γ-Rx H222R (human) (UniProt P15260)
# IFN-γ-Rx K115Y (human) = IFN-γ-Rx K115Y (human) (UniProt P15260)
# IFN-γ-Rx N65R (human) = IFN-γ-Rx N65R (human) (UniProt P15260)
# [1] = target: IFN-γ-Rx N70G + H222R (human) (UniProt P15260)
# [2] = target: IFN-γ-Rx N70G + S95R + H222R (human) (UniProt P15260)
# IFN-γ-Rx N96F (human) = IFN-γ-Rx N96F (human) (UniProt P15260)
# IFN-γ-Rx N96W (human) = IFN-γ-Rx N96W (human) (UniProt P15260)
# [3] = target: IFN-γ-Rx N96W + H222R (human) (UniProt P15260)
# IFN-γ-Rx S71E (human) = IFN-γ-Rx S71E (human) (UniProt P15260)
# IFN-γ-Rx S95R (human) = IFN-γ-Rx S95R (human) (UniProt P15260)
# [4] = target: IFN-γ-Rx S95R + H222R (human) (UniProt P15260)
# IFN-γ-Rx T166M (human) = IFN-γ-Rx T166M (human) (UniProt P15260)
# IFN-γ-Rx T166Y (human) = IFN-γ-Rx T166Y (human) (UniProt P15260)
# [5] = target: extracellular domain of human interferon-γ receptor 1 (IFN-γ-Rx), wild type (human) (UniProt P15260)
substance,measurement,setting,value
single-chain form of human interferon-γ (IFN-γ-SC) (ligand),fold change of Kd against WT,IFN-γ-Rx H222D (human),2.2 fold
same,Kd,IFN-γ-Rx H222R (human),29.4 nM
same,koff,IFN-γ-Rx H222R (human),0.0349 s⁻¹
same,kon,IFN-γ-Rx H222R (human),1.19e+06 M⁻¹ s⁻¹
same,Kd,IFN-γ-Rx K115Y (human),39.9 nM
same,koff,IFN-γ-Rx K115Y (human),0.0391 s⁻¹
same,kon,IFN-γ-Rx K115Y (human),979000 M⁻¹ s⁻¹
same,Kd,IFN-γ-Rx N65R (human),71.2 nM
same,koff,IFN-γ-Rx N65R (human),0.0628 s⁻¹
same,kon,IFN-γ-Rx N65R (human),882000 M⁻¹ s⁻¹
same,Kd,[1],26.9 nM
same,koff,[1],0.0391 s⁻¹
same,kon,[1],1.46e+06 M⁻¹ s⁻¹
same,Kd,[2],37 nM
same,koff,[2],0.0401 s⁻¹
same,kon,[2],1.09e+06 M⁻¹ s⁻¹
same,Kd,IFN-γ-Rx N96F (human),28 nM
same,koff,IFN-γ-Rx N96F (human),0.0283 s⁻¹
same,kon,IFN-γ-Rx N96F (human),1.01e+06 M⁻¹ s⁻¹
same,Kd,IFN-γ-Rx N96W (human),6.34 nM
same,koff,IFN-γ-Rx N96W (human),0.00909 s⁻¹
same,kon,IFN-γ-Rx N96W (human),1.43e+06 M⁻¹ s⁻¹
same,Kd,[3],4.16 nM
same,koff,[3],0.01 s⁻¹
same,kon,[3],2.4e+06 M⁻¹ s⁻¹
same,fold change of Kd against WT,IFN-γ-Rx S71E (human),2 fold
same,Kd,IFN-γ-Rx S95R (human),69.8 nM
same,koff,IFN-γ-Rx S95R (human),0.0454 s⁻¹
same,kon,IFN-γ-Rx S95R (human),650000 M⁻¹ s⁻¹
same,Kd,[4],56.3 nM
same,koff,[4],0.059 s⁻¹
same,kon,[4],1.05e+06 M⁻¹ s⁻¹
same,Kd,IFN-γ-Rx T166M (human),68.5 nM
same,koff,IFN-γ-Rx T166M (human),0.0639 s⁻¹
same,kon,IFN-γ-Rx T166M (human),933000 M⁻¹ s⁻¹
same,Kd,IFN-γ-Rx T166Y (human),83.1 nM
same,koff,IFN-γ-Rx T166Y (human),0.0782 s⁻¹
same,kon,IFN-γ-Rx T166Y (human),940000 M⁻¹ s⁻¹
same,Kd,[5],30.8 nM
same,koff,[5],0.0378 s⁻¹
same,kon,[5],1.24e+06 M⁻¹ s⁻¹
